Target: Flag-tagged full length Ack1 (human) (UniProt Q07912)
Assay: co-IP; Cos7 cells transfected with FLAG-Ack1 alone or with HA-NKD or HA-KD; RIPA lysates (450-750 ug) incubated overnight at 4°C with FLAG M2 affinity gel, washed 5 times with RIPA buffer; blots with anti-HA and anti-FLAG; densitometry ratio HA-Ack1/Flag-Ack1

fold co-immunoprecipitation against HA-KD: 3 fold
Substance: HA-tagged Ack1 NKD (amino terminus plus kinase domain) (from UniProt Q07912 1-385) (domain or fragment)
